Numbering of substitutions follows the chain as printed. In names and notes the source's numbering stands.
T1: ALK4 (activin type I receptor) (UniProt P36896 24-505, limits assumed)
T1 sequence (looked up): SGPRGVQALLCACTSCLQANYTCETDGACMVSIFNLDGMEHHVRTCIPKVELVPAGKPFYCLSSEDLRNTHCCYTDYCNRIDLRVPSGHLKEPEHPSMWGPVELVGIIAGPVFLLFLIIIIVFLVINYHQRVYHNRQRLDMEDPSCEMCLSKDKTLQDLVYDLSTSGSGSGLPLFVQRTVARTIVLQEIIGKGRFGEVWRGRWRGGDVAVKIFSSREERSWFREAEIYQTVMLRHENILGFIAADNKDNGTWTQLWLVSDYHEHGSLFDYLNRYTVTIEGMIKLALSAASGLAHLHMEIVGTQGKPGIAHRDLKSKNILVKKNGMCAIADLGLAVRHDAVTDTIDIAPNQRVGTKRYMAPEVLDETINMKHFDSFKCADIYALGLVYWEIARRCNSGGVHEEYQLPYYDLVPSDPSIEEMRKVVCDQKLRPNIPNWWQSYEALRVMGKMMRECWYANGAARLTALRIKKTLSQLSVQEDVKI

T2: ALK4 (activin type I receptor) (UniProt P36896)
T2 sequence (looked up): T1 sequence (looked up)

B1: A/C-2 chimeric activin A/activin C protein (ligand, human, UniProt P08476 311-426, looked up)
chain: GLECDGKVNICCKKQFFVSFKDIGWNDWIIAPSGYHANYCEGECPSHIAGTSGSSLSFHTAVLNLLKANTAAPFANLKSCCVPTKLRPMSMLYYDDGQNIIKKDIQNMIVEECGCS
B2: activin-A I63P (ligand, human, UniProt P08476 311-426, looked up)
chain: GLECDGKVNICCKKQFFVSFKDIGWNDWIIAPSGYHANYCEGECPSHIAGTSGSSLSFHSTVPNHYRMRGHSPFANLKSCCVPTKLRPMSMLYYDDGQNIIKKDIQNMIVEECGCS
B3: activin-A I105E (ligand, human, UniProt P08476 311-426, looked up)
chain: B2 chain with P63I, I105E
B4: activin-A M91E (ligand, human, UniProt P08476 311-426, looked up)
chain: B2 chain with P63I, M91E
B5: activin-A S60P (ligand, human, UniProt P08476 311-426, looked up)
chain: B2 chain with S60P, P63I
B6: activin-A M108E (ligand, human, UniProt P08476 311-426, looked up)
chain: B2 chain with P63I, M108E
B7: activin-A (M108A), P08476 311-426 (ligand, human, UniProt P08476 311-426, looked up)
chain: B2 chain with P63I, M108A
B8: activin-A S57A (ligand, human, UniProt P08476 311-426, looked up)
chain: B2 chain with S57A, P63I
B9: activin-A S60A/T61A (ligand, human, UniProt P08476 311-426, looked up)
chain: B2 chain with S60A, T61A, P63I
B10: A/C-1 chimeric activin A/activin C protein (ligand, human, UniProt P08476 311-426, looked up)
chain: B2 chain with S46L, T51M, S52P, S54I, S55A, L56A, P63I
B11: activin-A Y35A (ligand, human, UniProt P08476 311-426, looked up)
chain: B2 chain with Y35A, P63I
B12: A/C-2.3 chimeric activin A/activin C protein (ligand, human, UniProt P08476 311-426, looked up)
chain: B2 chain with P63I, Y66L, R67K, M68A, R69N, G70T
B13: activin-A H65A/M68A (ligand, human, UniProt P08476 311-426, looked up)
chain: B2 chain with P63I, H65A, M68A
B14: activin-A S52A/G53A/S54A (ligand, human, UniProt P08476 311-426, looked up)
chain: B2 chain with S52A, G53A, S54A, P63I
B15: activin-A I105A (ligand, human, UniProt P08476 311-426, looked up)
chain: B2 chain with P63I, I105A
B16: activin-A T61P (ligand, human, UniProt P08476 311-426, looked up)
chain: B2 chain with T61P, P63I
B17: activin-A S57P (ligand, human, UniProt P08476 311-426, looked up)
chain: B2 chain with S57P, P63I
B18: activin-A A49G (ligand, human, UniProt P08476 311-426, looked up)
chain: B2 chain with A49G, P63I
B19: activin-A V62A/I63A (ligand, human, UniProt P08476 311-426, looked up)
chain: B2 chain with V62A, P63A
B20: activin-A S90A (ligand, human, UniProt P08476 311-426, looked up)
chain: B2 chain with P63I, S90A
B21: activin-A G50A/T51A (ligand, human, UniProt P08476 311-426, looked up)
chain: B2 chain with G50A, T51A, P63I
B22: A/C-2.1 chimeric activin A/activin C protein (ligand, human, UniProt P08476 311-426, looked up)
chain: B2 chain with S60T, T61A, P63L
B23: activin-A R69A/G70A/H71A (ligand, human, UniProt P08476 311-426, looked up)
chain: B2 chain with P63I, R69A, G70A, H71A
B24: activin-A N76A/L77A/K78A/S79A (ligand, human, UniProt P08476 311-426, looked up)
chain: B2 chain with P63I, N76A, L77A, K78A, S79A
B25: activin-A A31Q (ligand, human, UniProt P08476 311-426, looked up)
chain: B2 chain with A31Q, P63I
B26: activin-A H59P (ligand, human, UniProt P08476 311-426, looked up)
chain: B2 chain with H59P, P63I
B27: activin-A F58A/H59A (ligand, human, UniProt P08476 311-426, looked up)
chain: B2 chain with F58A, H59A, P63I
B28: activin-A M91A (ligand, human, UniProt P08476 311-426, looked up)
chain: B2 chain with P63I, M91A
B29: A/C-2.4 chimeric activin A/activin C protein (ligand, human, UniProt P08476 311-426, looked up)
chain: B2 chain with P63I, M68A, R69N, G70T, H71A, S72A
B30: activin-A V62P (ligand, human, UniProt P08476 311-426, looked up)
chain: B2 chain with V62P, P63I
B31: activin-A W25A (ligand, human, UniProt P08476 311-426, looked up)
chain: B2 chain with W25A, P63I
B32: activin-A S55A/L56A (ligand, human, UniProt P08476 311-426, looked up)
chain: B2 chain with S55A, L56A, P63I
B33: A/C-2.2 chimeric activin A/activin C protein (ligand, human, UniProt P08476 311-426, looked up)
chain: B2 chain with P63L, H65L, Y66L, R67K
B34: activin-A P45A/S46A/H47A/I48A (ligand, human, UniProt P08476 311-426, looked up)
chain: B2 chain with P45A, S46A, H47A, I48A, P63I
B35: activin-A L92A (ligand, human, UniProt P08476 311-426, looked up)
chain: B2 chain with P63I, L92A
B36: activin-A/C chimera A/C 46-78 (ligand, UniProt P08476 311-355, looked up)
chain: GLECDGKVNICCKKQFFVSFKDIGWNDWIIAPSGYHANYCEGECPLHIAGMPGIAASFHTAVLNLLKANTAAGTTGGGSCCVPTKLRPMSMLYYDDGQNIIKKDIQNMIVEECGCS
notes: range 1-45 of the mature chain;range 46-78 of the mature chain;range 79 to C-terminus of the mature chain; also called A/C 46-78 chimera
B37: activin-A/C chimera A/C 46-53 (ligand, UniProt P08476 311-355, looked up)
chain: B2 chain with S46L, T51M, S52P, P63I
notes: range 1-45 of the mature chain;range 46-53 of the mature chain;range 54 to C-terminus of the mature chain
B38: activin-A/C chimera A/C 64-69 (ligand, UniProt P08476 311-373, looked up)
chain: B2 chain with P63I, H65L, Y66L, R67K, M68A, R69N
notes: range 1-63 of the mature chain;range 64-69 of the mature chain;range 70 to C-terminus of the mature chain
B39: activin-A/C chimera A/C 70-78 (ligand, UniProt P08476 311-379, looked up)
chain: B2 chain with P63I, G70T, H71A, S72A, P73G, F74T, A75T, N76G, L77G, K78G
notes: range 1-69 of the mature chain;range 70-78 of the mature chain;range 79 to C-terminus of the mature chain
B40: activin-A/C chimera A/C 54-63 (ligand, UniProt P08476 311-363, looked up)
chain: B2 chain with S54I, S55A, L56A, S60T, T61A, P63L
notes: range 1-53 of the mature chain;range 54-63 of the mature chain;range 64 to C-terminus of the mature chain

The binders below were run against T1, ALK4 (activin type I receptor) (assay: cell-based or functional assay).

Row | % Activin Activity (A3-luciferase assay in 293T cells) | Binder
1 | 17 % of wild type activin-A | B1
2 | 19 % of wild type activin-A | B2
3 | 13 % of wild type activin-A | B3
4 | 3 % of wild type activin-A | B4
5 | 17 % of wild type activin-A | B5
6 | 3 % of wild type activin-A | B6

Each binder was assayed against type II activin receptors in 293T cells (assay: cell-based or functional assay).

Row | activin-A (100 pM) induced luciferase response in 293T cells with increasing amounts of M108A (fold induction) | myostatin (500 pM) induced luciferase response in 293T cells with increasing doses of M108A (fold induction) | Binder
7 | 23 | 26 | B7

Each binder was assayed against T2, ALK4 (activin type I receptor) (assay: cell-based or functional assay).

Row | % Activin Activity (A3-luciferase assay in 293T cells) (% of wild type activin-A) | Binder
8 | 101 | B8
9 | 97 | B9
10 | 104 | B10
11 | 101 | B11
12 | 87 | B12
13 | 82 | B13
14 | 99 | B14
15 | 86 | B15
16 | 78 | B16
17 | 83 | B17
18 | 82 | B18
19 | 83 | B19
20 | 59 | B20
21 | 83 | B21
22 | 81 | B22
23 | 82 | B23
24 | 82 | B24
25 | 84 | B25
26 | 85 | B26
27 | 126 | B27
28 | 74 | B28
29 | 79 | B29
30 | 64 | B30
31 | 73 | B31
32 | 101 | B32
33 | 107 | B33
34 | 91 | B34
35 | 35 | B35

What follows are binders tested against T3, mouse ActRII transfected into 293T cells (mouse, UniProt P27038 20-513) (assay: ActRII binding, 293T cells transfected with mouse ActRII).
T3 construct: whole, on cells
Method: After the incubation cells were washed three times with HDB buffer and lysed with 1% SDS solution. Radioactivity in the lysate was determined using a gamma counter.
Therefore, the inventors contemplate engineering a series of activin-A chimeras, such as activin-A/C chimeras, preferably having a peptide tag such a FLAG tag, in each of […] in the wrist loop and helix (such as A/C 46-53, 54-63, 64-69, 70-78) are replaced. Additionally, a chimera was generated in which the entire wrist region (A/C 46-78) was changed from activin-A to activin-C or some other analogous TGF-β member. In one example, the chimeras were assessed for ActRII binding, activin bioactivity as well as antagonistic properties. […] Maximum activity of A/C 64-69 and 70-78, however, was reduced down to about 20-50% and 60-90%, respectively, when compared to wt activin. […] Additionally, A/C 46-78 decreased the basal and activin induced FSH release from cultured rat anterior pituitary cells in a concentration dependent manner. […] The activin antagonist A/C 46-78 may be useful for the study and modulation of activin dependent processes.

T3 sequence (P27038 20-513): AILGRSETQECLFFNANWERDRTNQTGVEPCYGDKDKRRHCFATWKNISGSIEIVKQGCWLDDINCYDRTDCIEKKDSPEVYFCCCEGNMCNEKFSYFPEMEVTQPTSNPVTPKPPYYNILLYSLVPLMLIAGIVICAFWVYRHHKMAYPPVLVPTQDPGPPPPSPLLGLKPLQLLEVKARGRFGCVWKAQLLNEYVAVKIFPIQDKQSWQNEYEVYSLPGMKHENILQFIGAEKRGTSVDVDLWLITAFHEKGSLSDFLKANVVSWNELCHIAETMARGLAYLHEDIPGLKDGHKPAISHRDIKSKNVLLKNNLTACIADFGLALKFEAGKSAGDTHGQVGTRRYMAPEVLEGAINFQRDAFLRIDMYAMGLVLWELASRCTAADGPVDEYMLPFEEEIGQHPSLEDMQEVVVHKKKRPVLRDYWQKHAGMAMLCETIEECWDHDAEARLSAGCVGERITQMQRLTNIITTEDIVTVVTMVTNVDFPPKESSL

Row | binding result | Binder
36 | binds | B36
37 | binds | B37
38 | binds | B38
39 | binds | B39
40 | binds | B40
